The results in this text go back to paper PMC7782513, “Structural basis for nuclear import selectivity of pioneer transcription factor SOX2” (Nature Communications, 2021).

T1: IMPα3 lacking the IMPβ-binding domain (residues 64-521) (human, UniProt O00629 64-521)
T1 sequence (looked up): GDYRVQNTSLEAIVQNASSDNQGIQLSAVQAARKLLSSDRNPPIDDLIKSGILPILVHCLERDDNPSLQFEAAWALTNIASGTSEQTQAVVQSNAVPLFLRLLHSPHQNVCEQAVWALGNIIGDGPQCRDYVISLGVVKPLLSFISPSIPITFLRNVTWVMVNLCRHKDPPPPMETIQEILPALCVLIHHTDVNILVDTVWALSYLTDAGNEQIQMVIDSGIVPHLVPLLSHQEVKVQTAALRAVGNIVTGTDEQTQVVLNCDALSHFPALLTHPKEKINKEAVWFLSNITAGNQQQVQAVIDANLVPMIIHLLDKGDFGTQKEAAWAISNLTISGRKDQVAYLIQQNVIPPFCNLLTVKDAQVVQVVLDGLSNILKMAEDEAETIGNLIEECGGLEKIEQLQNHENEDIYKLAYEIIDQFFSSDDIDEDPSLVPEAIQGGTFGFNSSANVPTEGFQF

B1: His-tagged SOX2 HMG domain (residues 39-127), wild type (domain or fragment)
chain: not shown
notes: SOX2 HMG domain, human, residues 39-127 of UniProtKB P48431; pET30a+ construct with a TEV site (ENLYFQS) between tag and SOX2; in MST the labelled SOX2 carries the RED-tris-NTA dye of the his-tag labelling kit; also called SOX2 WT; source: E. coli BL21 (DE3) pLysS, purified (HisTrap, SEC); not shown: His6, N-terminal, kept
B2: His-tagged SOX2 R57A (domain or fragment)
chain: not shown
notes: SOX2 HMG domain, human, residues 39-127 of UniProtKB P48431, with R57A; source: E. coli, recombinant, purified; not shown: His6, N-terminal, kept
B3: His-tagged SOX2 T116E (to mimic phosphorylation) (domain or fragment)
chain: not shown
notes: SOX2 HMG domain, human, residues 39-127 of UniProtKB P48431, with T116E; source: E. coli, recombinant, purified; not shown: His6, N-terminal, kept
B4: His-tagged SOX2 K117A (domain or fragment)
chain: not shown
notes: SOX2 HMG domain, human, residues 39-127 of UniProtKB P48431, with K117A; source: E. coli, recombinant, purified; not shown: His6, N-terminal, kept
B5: His-tagged SOX2 R40A (domain or fragment)
chain: not shown
notes: SOX2 HMG domain, human, residues 39-127 of UniProtKB P48431, with R40A; source: E. coli, recombinant, purified; not shown: His6, N-terminal, kept
B6: His-tagged SOX2 R98A (domain or fragment)
chain: not shown
notes: SOX2 HMG domain, human, residues 39-127 of UniProtKB P48431, with R98A; source: E. coli, recombinant, purified; not shown: His6, N-terminal, kept
B7: His-tagged SOX2 K42A (domain or fragment)
chain: not shown
notes: SOX2 HMG domain, human, residues 39-127 of UniProtKB P48431, with K42A; source: E. coli, recombinant, purified; not shown: His6, N-terminal, kept
B8: His-tagged SOX2 R113A (domain or fragment)
chain: not shown
notes: SOX2 HMG domain, human, residues 39-127 of UniProtKB P48431, with R113A; source: E. coli, recombinant, purified; not shown: His6, N-terminal, kept
B9: His-tagged SOX2 R114A (domain or fragment)
chain: not shown
notes: SOX2 HMG domain, human, residues 39-127 of UniProtKB P48431, with R114A; source: E. coli, recombinant, purified; not shown: His6, N-terminal, kept
B10: His-tagged SOX2 R56A (domain or fragment)
chain: not shown
notes: SOX2 HMG domain, human, residues 39-127 of UniProtKB P48431, with R56A; source: E. coli, recombinant, purified; not shown: His6, N-terminal, kept
B11: His-tagged SOX2 K115A (domain or fragment)
chain: not shown
notes: SOX2 HMG domain, human, residues 39-127 of UniProtKB P48431, with K115A; source: E. coli, recombinant, purified; not shown: His6, N-terminal, kept
B12: His-tagged SOX2 R43A (domain or fragment)
chain: not shown
notes: SOX2 HMG domain, human, residues 39-127 of UniProtKB P48431, with R43A; also called R43A-SOX2; source: E. coli, recombinant, purified; not shown: His6, N-terminal, kept

The first test has as its target T1, IMPα3 lacking the IMPβ-binding domain …. As to the kind of experiment: MST; labelled SOX2 at 50 nM (his-tag labelling kit RED-tris-NTA), unlabelled importins titrated; 20 mM HEPES, 150 mM NaCl, pH 8.0; 25 °C; single binding model. Conditions: both partners purified.
A word on the Kd: it is the concentration at which binding is half-saturated. B1 had a Kd of 102 nM.

The target of the next test is IMPα1 lacking the IMPβ-binding domain (residues 70-529) (human, UniProt P52292 70-529). The test is described as above. Conditions: both partners purified.
As to B1, the Kd is 447 nM.

The next test deals with IMPα5 lacking the IMPβ-binding domain (residues 73-538) (human, UniProt P52294 73-538). Described as above. The conditions noted are these: both partners purified.
Chain of IMPα5 lacking the IMPβ-binding domain (residues 73-538) (P52294 73-538): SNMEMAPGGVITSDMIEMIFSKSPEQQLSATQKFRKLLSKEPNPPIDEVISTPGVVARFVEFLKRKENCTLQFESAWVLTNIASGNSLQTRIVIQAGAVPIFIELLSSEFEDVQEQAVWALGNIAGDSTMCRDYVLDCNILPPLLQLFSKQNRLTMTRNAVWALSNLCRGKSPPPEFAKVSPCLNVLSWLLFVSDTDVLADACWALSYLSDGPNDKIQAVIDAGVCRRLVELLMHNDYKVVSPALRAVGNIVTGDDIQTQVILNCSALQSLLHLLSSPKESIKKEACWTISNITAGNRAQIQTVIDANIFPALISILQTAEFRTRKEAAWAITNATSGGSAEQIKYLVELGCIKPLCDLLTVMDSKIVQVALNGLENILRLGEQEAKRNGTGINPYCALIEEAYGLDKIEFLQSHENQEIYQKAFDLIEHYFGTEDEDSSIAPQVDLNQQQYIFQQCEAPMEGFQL
The molecule B1 returned a Kd of 247 nM.

Another test deals with IMPα2 lacking the IMPβ-binding domain (residues 70-529) (UniProt P52293 70-529). The test is described as above. The conditions noted are these: both partners purified.
On to B1, for which the Kd was 283 nM.

The next test has as its target T1, IMPα3 lacking the IMPβ-binding domain …. As to the kind of experiment: pull-down; 10 µM His-tagged SOX2 or mutant immobilised on Ni-NTA resin, 20 µM IMPα in 300 µL; washed three times with 50 mM phosphate pH 8.0, 300 mM NaCl, 20 mM imidazole; eluted through TEV cleavage; SDS-PAGE. Conditions: both partners purified.
As to B2, the binding result is given as “binds”. Still for that read-out and setting: the result for B3 reads “binds”; that for B4, “binds”.

For the molecule B5, the binding result is reported as “binds”. Take B6: the binding result is reported as “binds”. In the case of B7, the binding result is on record as “binds”. On the same count and under the same terms, the value for B8 was “binds”; that for B9 was “binds”; that for B10 was “binds”. On to B11, for which the binding result was “binds”. On the same count and under the same terms, the value for B12 was “binds”.
